The subject of the data set is HeLa cells. Nature of the data set: Evaluation of cell-membrane permeability (flow cytometry of FITC-labelled peptide complexes). Particulars: for Mode of fluorescence intensity, 0 hour of culture / Mode of fluorescence intensity, 1 hour of culture: 2 μM peptide complex, flow cytometer; for Mode of fluorescence intensity, 0 hour of culture: living (propidium iodide-negative) cells; for Mode of fluorescence intensity, 1 hour of culture: 37° C., 5% CO2, living (propidium iodide-negative) cells; for Level of cell-membrane permeation compared with Comparative Example 1: at 1 hour of culture, versus peptide complex of Comparative Example 1. The data set is classed as cell-based, Human. As to the method:
HeLa cells (Human cervix adenocarcinoma cells) were cultured for 1 hour in a cell culture containing 2 μM of the peptide complex synthesized in Example 1 or 2 or Comparative Example 1 under conditions of 5% (v/v) CO2 and 37° C. For culturing the HeLa cells, FluoroBrite D-MEM (obtained from ThermoFisher Co.) (supplemented with 10% (v/v) FCS (fetal calf serum) and 10% (v/v) GlutaMax (obtained from ThermoFisher Co.)) was used.
Next, the surfaces of the cells were washed with D-PBS (−) (supplemented with heparin (20 units/mL)), followed by recovery of the cells. The cells were suspended in D-PBS(−) (supplemented with 0.5% (v/v) BSA (bovine serum albumin), 200 mM EDTA (ethylenediaminetetraacetic acid), and 0.2% (v/v) propidium iodide (obtained from Sigma-Aldrich Co.)). A flow cytometer (BD FACS AriaIII) was used to measure fluorescence intensity. Upon flow cytometry analysis, the mode of fluorescence intensity was calculated for a population of living cells excluding dead cells that were propidium iodide-positive. As a control, dimethyl sulfoxide (DMSO) not containing the peptide complex was tested in the same manner.
A general note: In flow cytometry, cells or beads pass a laser one at a time.

Numbered stars: 1 amine (or outer) side, 2 acyl side, 3 side chain; on linkers, the order of the positions; unused ones are H or OH. Bridge positions count the residues as written; N and C are the ends. Square brackets hold non-standard residues; d marks the D form. Ends that are not written are not given here. Peptide text beside a SMILES is read from it. * marks the point of attachment. X1 = NC(N)=NCCNC(=O)CCOCC(COCCC(=O)NCCN=C(N)N)(COCCC(=O)NCCN=C(N)N)NC(=O)CON=C(C[*:1])C[*:2]; FITC = O=C1OC2(c3ccc(O)cc3Oc3cc(O)ccc32)c2ccc(NC(=S)*)cc21; Ahx = NCCCCCC(=O)O

For the compound `CC[C@H](C)[C@@H]1NC(=O)[C@H](Cc2ccc(O)cc2)NC(=O)[C@H](CC(C)C)NC(=O)[C@H](CCSC)NC(=O)[C@@H](NC(=O)CCCCCNC(=S)Nc2ccc3c(c2)C(=O)OC32c3ccc(O)cc3Oc3cc(O)ccc32)CSCC(=NOCC(=O)NC(COCCC(=O)NCCN=C(N)N)(COCCC(=O)NCCN=C(N)N)COCCC(=O)NCCN=C(N)N)CSC[C@@H](C(N)=O)NC(=O)CNC(=O)[C@H](C(C)C)NC(=O)[C@H](CO)NC(=O)[C@H](Cc2ccccc2)NC(=O)[C@H](Cc2ccc(O)cc2)NC(=O)[C@@H]2CCCN2C(=O)[C@H](C(C)C)NC1=O` [Comparative Example 1, reference compound] ({FITC-Ahx}-CMLYIVPYFSVGC-NH2; linker 1-13 via X1), the “Mode of fluorescence intensity, 0 hour of culture” value was found to be 66.6 and the “Mode of fluorescence intensity, 1 hour of culture” value was found to be 412.
Turning to “Example 1: FITC-labelled cyclic peptide CMLYIVPYFSVGC with cell-membrane-permeability-imparting group G6 (two dendritic units, six guanidino groups) bound by oxime ligation ([Ahx]CMLYIVPYFSVGC-NH2; not fully specified (bridges); numbers in words are those of the source; also: cyclic, mode not given here, FITC label, place not given here, G6 guanidino dendron bound by oxime ligation, place not given here)”, the “Mode of fluorescence intensity, 0 hour of culture” value amounted to 60; the “Mode of fluorescence intensity, 1 hour of culture” value was determined as 730; the “Level of cell-membrane permeation compared with Comparative Example 1” value is recorded as “higher levels of cell-membrane permeation”.
The like results for “Example 2: FITC-labelled cyclic peptide CMLYIVPYFSVGC with cell-membrane-permeability-imparting group G9 (three dendritic units, nine guanidino groups) bound by oxime ligation (not fully specified (N-terminus, C-terminus, bridges); also: cyclic, mode not given here, FITC label, place not given here, G9 guanidino dendron bound by oxime ligation, place not given here)” were, in that order, 65.8, 877 and “higher levels of cell-membrane permeation”.

For the origin of these results see patent US20220162259A1, “PEPTIDE COMPLEX AND PRODUCTION METHOD THEREFOR, AND USE OF SAID PEPTIDE COMPLEX” (KANEKA CORPORATION, priority 2019, published 2022).
